# Measured values taken from the supplement of paper PMC9170038.
# Test system: MS2 coat protein
# Experiment: apparent KD of MS2 coat protein; higher = weaker reporter binding
# Settings: Eterna round: R107; input ligand: theophylline 20 uM
# Method in brief: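 Designed RNA switches were transcribed on-chip from Illumina sequencing clusters. SNAP-549-labelled MS2 coat protein was titrated onto them in twofold steps from 0.7 or 1.5 nM to 3 µM in 100 mM Tris-HCl pH 7.5, 80 mM KCl, 4 mM MgCl2, either without or with constant ligand. Apparent KD reflects the per-design median of normalised cluster binding-curve fits.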
row,Sequence,apparent KD of MS2 coat protein [nM]
1,AGUACACGAACUGAUACCAGCCGGACAUGAGGAUCACCCAUGUCCUACCUCUGUUCGGUUGGCCCUUGGCAGCAGUUCGUGUACA [Omei Theo B SS A v9],391
2,AUGCACGGGCUAAUCUGCGAUUGGCACGAUACCAGAGAUCAAGACCUCCCUUGGCAGCGUGUCACAUGAGGAUCACCCAUGUGGA [theeternabot_exclusion_MS2_Theo_A_40],127
3,CCUAUGCAGUCGGCCGCCACUGAACAUGAGGAUCACCCAUGUAAUUAAAAUUAAGGUCCUAAAAUCAGGACCGGGACUGUAUAGG [Ex Tryptophan B 6],43.3
4,GCACUACAUGAGGAUCACCCAUGUGCAGAUACCAGAGGUGUAUGCCUCCCUUGGCAGCUGAGUAGCUCUGGAGGCCUAUUGGUUU [Same State Theophylline A GF15],20
5,UGACAUUGCUCAGAUACCAGACAUGAGGAUCACCCAUGUACCAAGAAAGUACAAUAAAAUGUCCCUUGGCAGCUGAGCAAUGUCU [TheoBX 8 #MS2Left #Theo2],137
6,CGACUACAGCGUGAUACCAGUGACAGAUACCAGUCUAGACAUGAGGAUCACCCAUGUACGCGCCCUUGGCAGCACACUAGAUCGA [#29 Same State - Theophylline B],128
7,ACUACAUGAGGAUCACCCAUGUGUACUGAAGGAGCGGCGGAAACGCCAGGUAGGUCGCAGUACACCUCAACCAGCGGUCCUAAGU [EAA NP+V+V2 #1],85.9
8,GGGUACAUCGCGGCCGCCACUCAUGUAAAUACAUGAGGAUCACCCAUGUCGAUGGAGACAUCGGAGAGGACCGGGCGAUGUACCG,352
9,UCUUUUUUCUUUUCUUCUUUCGGUUCUUUUCGAGGACCGGUACGGCCGCCACUCGAAACAUGAGGAUCACCCAUGUUUUGGUUUU [Trypto a],17.6
10,GAUGAACUAUUUGAUACCAGACUACAUGAGGAUCACCCAUGUGUGUUUAUACUUCAGUCAGUCCCUUGGCAGCAAAUAGUUUAUC [XTheo B #3],183
11,GAAAAUCCCGUACAUGAGGAUCACCCAUGUCGAGGACCGGUACGGCCGCCACUCGCACGCAUUGCAUUGGAGGGUCAGGUACGAG [Erenerrati],34.7
12,GAUGAACUAUUUGAUACCAGACUACAUGAGGAUCACCCAUGUGAGUUUCGUCCUCUGCCAGUCCCUUGGCAGCAAAUAGUUUAUC [XTheo B #8],36.7
13,UCGCAUUGCUCAGAUACCAGACAUGAGGAUCACCCAUGUACCAAGGUACCCGAAAGGAAUGUCCCUUGGCAGCUGAGCAAUGCGU [MAT - Exclusion Theophlline B - Mod of Eli - D19],14
14,AUGCCUAGUGGAAGGAGCGAGGGUCCUCUCAACAUGAGGAUCACCCAUGUUCUUUUGCACCCUCAGGUAGGUCGCCAUUGGGACA [Veanaris],92.4

# Same assay, conditions: Eterna round: R107; input ligand: theophylline 2 mM
row,Sequence,apparent KD of MS2 coat protein [nM]
1,CGGUCGGUCGGCCGGUGAUUAUGGGAUGAAGGAGCGUGGGAAGCUACAGGUAGGUCGCAUCCGAAACAUCACGAUCACGGAUGUU [SSArg A #26Alt-Ms2 Mod],101
2,GAGACGUCGGGAAGGAGCGCAUCCAAACCACACAUGAGGAUCACCCAUGUAUAAAUAUGCAUGCAGGUAGGUCGCCCGGUGUCCC [Diaxeon],97.8
3,GCUAGGUCUACGGCCGCCACUAGACGUGGGUAAAACAUGAGGAUCACCCAUGUGCUACGGGCGAAUAGGACCGGGUAGACCUAGC [SSTB NP+V+V2 #15 +-Same Structure],711
4,UUCAGCUAGUCGGCCGCCACUACAUGAGGAUCACCCAUGUAUCCUAAACACUGCUUCGGCAGUGGUAGGACCGGGACUAGCUGAG,18.3
5,AAACAUGAGGAUCACCCAUGUAAUUCAGAAGGAGCGUCAUUAUUGACAGGUAGGUCGCUGAUAAAAUUUCUAUACAUCAUGUAUA [JR_SSArginiA_Sub013],13
6,AGCUGGGAUCCUCAGCGUCAAAGACGCAGUCGAGGACCGGUACGGCCGCCACUCGACACGAGGAUCACCCGUGUCAUUCCCAGCA [TrypAX 1 #SwitchBubble #AlternativeMS2 #MS2Late #CuTurnoff],584
7,CCUUAAUAUAGAAGGAGCGCGCUAACAUGAGGAUCACCCAUGUAAAGGGUUUUUGGCUUAGCGCAGGUAGGUCGCUAUAAGAACC [Arg B Ex t1],131
8,AUCUUUGACGAUCUGGGAAAACCAGAUCGGCGAGGACCGGUACGGCCGCCACUCGUGUAUAAUAUACAUGAGGAUCACCCAUGUA [#19 Tryptophan A Same State],53.9
9,AAGGAACAUGAGGAUCACCCAUGUACCGAAGGAGCGGCAGAGAUGCCAGGUAGGUCGCGGUACUUGCCGGGUCAUUCAUGCAGAG [Arraiste],32.8
10,AAUUCCUCACAUGAGGAUCACCCAUGUGAAGGAGCGCGGAAUAACGCAGGUAGGUCGCACAUGGAAACCGCUGCGAAAGCAGCAA [MAT - Exclusion Arginine A - Mod of Eli - D26],18.1
11,CCUAUGCAGUCGGCCGCCACUGAACAUGAGGAUCACCCAUGUAAUUAAAAUUAAGGUCCUAAAAUCAGGACCGGGACUGUAUAGG [Ex Tryptophan B 6],56.6
12,ACUACAUGAGGAUCACCCAUGUGUACUGAAGGAGCGGCGGAAACGCCAGGUAGGUCGCAGUACACCUCAACCAGCGGUCCUAAGU [EAA NP+V+V2 #1],115
13,GGGUACAUCGCGGCCGCCACUCAUGUAAAUACAUGAGGAUCACCCAUGUCGAUGGAGACAUCGGAGAGGACCGGGCGAUGUACCG,540
14,UCUUUUUUCUUUUCUUCUUUCGGUUCUUUUCGAGGACCGGUACGGCCGCCACUCGAAACAUGAGGAUCACCCAUGUUUUGGUUUU [Trypto a],13.7
15,GAAAAUCCCGUACAUGAGGAUCACCCAUGUCGAGGACCGGUACGGCCGCCACUCGCACGCAUUGCAUUGGAGGGUCAGGUACGAG [Erenerrati],29.2
16,AUGCCUAGUGGAAGGAGCGAGGGUCCUCUCAACAUGAGGAUCACCCAUGUUCUUUUGCACCCUCAGGUAGGUCGCCAUUGGGACA [Veanaris],65.8

# Same assay, conditions: Eterna round: R107; input ligand: tryptophan 2.4 mM
row,Sequence,apparent KD of MS2 coat protein [nM]
1,AAUUGGGUUGGUGAGGUGGUUGGAGGCGAUACCAGCGUGGAAACACGCCCUUGGCAGCGCCAGGACAUGAGGAUCACCCAUGUUC [Ostrava],22.1
2,UGACAUUGCUCAGAUACCAGACAUGAGGAUCACCCAUGUACCAAGAAAACGUACAAUAAUGUCCCUUGGCAGCUGAGCAAUGUCU [TheoBX 9 #MS2Left #Theo2],93.6
3,GAUGAUAUUGCAGAUACCAGACACAUGAGGAUCACCCAUGUCGUUGGGUAGCUGGGUCGUGUCCCUUGGCAGCUGCGAUAUCAUC [#05 Exclusion-TheophyllineB],24.5
4,CGGUCGGUCGGCCGGUGAUUAUGGGAUGAAGGAGCGUGGGAAGCUACAGGUAGGUCGCAUCCGAAACAUCACGAUCACGGAUGUU [SSArg A #26Alt-Ms2 Mod],72.4
5,GAGACGUCGGGAAGGAGCGCAUCCAAACCACACAUGAGGAUCACCCAUGUAUAAAUAUGCAUGCAGGUAGGUCGCCCGGUGUCCC [Diaxeon],75.1
6,GCUAGGUCUACGGCCGCCACUAGACGUGGGUAAAACAUGAGGAUCACCCAUGUGCUACGGGCGAAUAGGACCGGGUAGACCUAGC [SSTB NP+V+V2 #15 +-Same Structure],85.4
7,UUCAGCUAGUCGGCCGCCACUACAUGAGGAUCACCCAUGUAUCCUAAACACUGCUUCGGCAGUGGUAGGACCGGGACUAGCUGAG,136
8,AAUCUGUCGGGUGAUACCAGCCUCGGCACGUCUCGUGCCGAACAUGAGGAUCACCCAUGUGGCCCUUGGCAGCACAUGACAAAUC [Teaton],606
9,AAACAUGAGGAUCACCCAUGUAAUUCAGAAGGAGCGUCAUUAUUGACAGGUAGGUCGCUGAUAAAAUUUCUAUACAUCAUGUAUA [JR_SSArginiA_Sub013],13.3
10,AGCUGGGAUCCUCAGCGUCAAAGACGCAGUCGAGGACCGGUACGGCCGCCACUCGACACGAGGAUCACCCGUGUCAUUCCCAGCA [TrypAX 1 #SwitchBubble #AlternativeMS2 #MS2Late #CuTurnoff],1460
11,CUAGGAAACUAGUAAGGGUGGUAUUGAGAUACCAGUACAGAAAUGUACCCUUGGCAGCUCACUGCAACAUGAGGAUCACCCAUGU [Ex Theophylline A 12],27
12,CCUUAAUAUAGAAGGAGCGCGCUAACAUGAGGAUCACCCAUGUAAAGGGUUUUUGGCUUAGCGCAGGUAGGUCGCUAUAAGAACC [Arg B Ex t1],134
13,AAGGAACAUGAGGAUCACCCAUGUACCGAAGGAGCGGCAGAGAUGCCAGGUAGGUCGCGGUACUUGCCGGGUCAUUCAUGCAGAG [Arraiste],23.9
14,AAUUCCUCACAUGAGGAUCACCCAUGUGAAGGAGCGCGGAAUAACGCAGGUAGGUCGCACAUGGAAACCGCUGCGAAAGCAGCAA [MAT - Exclusion Arginine A - Mod of Eli - D26],16.3
15,AGUACACGAACUGAUACCAGCCGGACAUGAGGAUCACCCAUGUCCUACCUCUGUUCGGUUGGCCCUUGGCAGCAGUUCGUGUACA [Omei Theo B SS A v9],76.2
16,AUGCACGGGCUAAUCUGCGAUUGGCACGAUACCAGAGAUCAAGACCUCCCUUGGCAGCGUGUCACAUGAGGAUCACCCAUGUGGA [theeternabot_exclusion_MS2_Theo_A_40],141
17,GCACUACAUGAGGAUCACCCAUGUGCAGAUACCAGAGGUGUAUGCCUCCCUUGGCAGCUGAGUAGCUCUGGAGGCCUAUUGGUUU [Same State Theophylline A GF15],16.8
18,UGACAUUGCUCAGAUACCAGACAUGAGGAUCACCCAUGUACCAAGAAAGUACAAUAAAAUGUCCCUUGGCAGCUGAGCAAUGUCU [TheoBX 8 #MS2Left #Theo2],66.9
19,CGACUACAGCGUGAUACCAGUGACAGAUACCAGUCUAGACAUGAGGAUCACCCAUGUACGCGCCCUUGGCAGCACACUAGAUCGA [#29 Same State - Theophylline B],83.2
20,ACUACAUGAGGAUCACCCAUGUGUACUGAAGGAGCGGCGGAAACGCCAGGUAGGUCGCAGUACACCUCAACCAGCGGUCCUAAGU [EAA NP+V+V2 #1],51.1
21,GGGUACAUCGCGGCCGCCACUCAUGUAAAUACAUGAGGAUCACCCAUGUCGAUGGAGACAUCGGAGAGGACCGGGCGAUGUACCG,264
22,GAUGAACUAUUUGAUACCAGACUACAUGAGGAUCACCCAUGUGUGUUUAUACUUCAGUCAGUCCCUUGGCAGCAAAUAGUUUAUC [XTheo B #3],158
23,GAAAAUCCCGUACAUGAGGAUCACCCAUGUCGAGGACCGGUACGGCCGCCACUCGCACGCAUUGCAUUGGAGGGUCAGGUACGAG [Erenerrati],75.5
24,GAUGAACUAUUUGAUACCAGACUACAUGAGGAUCACCCAUGUGAGUUUCGUCCUCUGCCAGUCCCUUGGCAGCAAAUAGUUUAUC [XTheo B #8],14.3
25,UCGCAUUGCUCAGAUACCAGACAUGAGGAUCACCCAUGUACCAAGGUACCCGAAAGGAAUGUCCCUUGGCAGCUGAGCAAUGCGU [MAT - Exclusion Theophlline B - Mod of Eli - D19],10.4
26,AUGCCUAGUGGAAGGAGCGAGGGUCCUCUCAACAUGAGGAUCACCCAUGUUCUUUUGCACCCUCAGGUAGGUCGCCAUUGGGACA [Veanaris],76
